Source: paper PMC9482650, “Quantitative fragmentomics allow affinity mapping of interactomes” (Nature Communications, 2022)

Key:
Experiment in all cases: holdup assay
Design in all cases: key: below the threshold = too weak to quantify, mostly under pKd 3.1 to 4
[1] = target: GORASP2, Q9H8Y8
[2] = target: T1, DFNB31_2, Q9P202
T1 sequence (Q9P202 274-371, limits assumed, looked up): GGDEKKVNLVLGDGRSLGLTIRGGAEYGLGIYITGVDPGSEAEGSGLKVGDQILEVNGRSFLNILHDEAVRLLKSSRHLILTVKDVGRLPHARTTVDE

[3] = target: T2, NHERF3_3, Q5T2W1
T2 sequence (Q5T2W1 238-333, limits assumed, looked up): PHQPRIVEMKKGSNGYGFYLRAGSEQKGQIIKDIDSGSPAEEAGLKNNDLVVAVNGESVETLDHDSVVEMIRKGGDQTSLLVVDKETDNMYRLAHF

[4] = target: MAGI1_1, Q96QZ7
[5] = target: T3, LNX2_3, Q8N448
T3 sequence (Q8N448 463-564, limits assumed, looked up): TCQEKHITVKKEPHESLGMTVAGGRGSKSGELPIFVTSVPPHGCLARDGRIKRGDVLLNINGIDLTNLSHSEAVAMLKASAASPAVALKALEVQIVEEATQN

[6] = target: GRIP2_5, Q9C0E4
[7] = target: T4, ARHGEF11, O15085
T4 sequence (O15085 42-136, limits assumed, looked up): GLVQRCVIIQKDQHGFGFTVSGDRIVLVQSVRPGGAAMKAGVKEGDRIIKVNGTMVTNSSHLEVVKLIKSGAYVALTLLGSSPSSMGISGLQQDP

[8] = target: T5, HTRA3, P83110
T5 sequence (P83110 354-453, limits assumed, looked up): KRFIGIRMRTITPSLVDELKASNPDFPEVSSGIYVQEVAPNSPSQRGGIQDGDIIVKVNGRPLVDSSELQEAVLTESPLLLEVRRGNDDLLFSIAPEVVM

[9] = target: GRIP2_4, Q9C0E4
[10] = target: T6, DFNB31_3, Q9P202
T6 sequence (Q9P202 811-907, limits assumed, looked up): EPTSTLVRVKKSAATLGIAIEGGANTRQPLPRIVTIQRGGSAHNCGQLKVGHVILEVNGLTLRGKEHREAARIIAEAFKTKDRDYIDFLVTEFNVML

[11] = target: HTRA2, O43464
[12] = target: HTRA1, Q92743
[13] = target: T7, LNX2_2, Q8N448
T7 sequence (Q8N448 334-432, limits assumed, looked up): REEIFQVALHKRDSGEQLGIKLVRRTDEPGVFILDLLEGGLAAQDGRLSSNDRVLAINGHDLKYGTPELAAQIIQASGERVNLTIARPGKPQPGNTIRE

[14] = target: TJP1_3, Q07157
[15] = target: T8, MPDZ_10, O75970
T8 sequence (O75970 1624-1722, limits assumed, looked up): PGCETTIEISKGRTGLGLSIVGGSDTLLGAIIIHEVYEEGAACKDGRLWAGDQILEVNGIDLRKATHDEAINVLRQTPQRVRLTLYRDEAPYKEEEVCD

[16] = target: SNX27, Q96L92
[17] = target: MAGI3_2, Q5TCQ9
[18] = target: PICK1, Q9NRD5
[19] = target: TJP1_2, Q07157
[20] = target: GOPC, Q9HD26
[21] = target: IL16_3, Q14005
[22] = target: MAST1, Q9Y2H9
[23] = target: GRID2IP_2, A4D2P6
[24] = target: T9, APBA2_2, Q99767
T9 sequence (Q99767 654-744, limits assumed, looked up): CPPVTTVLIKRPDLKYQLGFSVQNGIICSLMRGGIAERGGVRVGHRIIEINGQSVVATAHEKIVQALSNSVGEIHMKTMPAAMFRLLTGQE

[25] = target: Inadl_9, Q8NI35
[26] = target: Inadl_5, Q8NI35
[27] = target: DLG1_3, Q12959
[28] = target: Inadl_4, Q8NI35
[29] = target: Inadl_1, Q8NI35
[30] = plain residues with an end cap or a label only (N-terminal biotin on a linker: ttds)
[31] = plain residues with an end cap or a label only (N-terminal biotin on a linker: ahx)

Chain of GRID2IP_2, A4D2P6 (A4D2P6 272-370): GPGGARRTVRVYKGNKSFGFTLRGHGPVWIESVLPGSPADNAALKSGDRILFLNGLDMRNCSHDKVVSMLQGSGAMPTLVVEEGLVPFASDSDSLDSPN
Chain of MAGI3_2, Q5TCQ9 (Q5TCQ9 398-503): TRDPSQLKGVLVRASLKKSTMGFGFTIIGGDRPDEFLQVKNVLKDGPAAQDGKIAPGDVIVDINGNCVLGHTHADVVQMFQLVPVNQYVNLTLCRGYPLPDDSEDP
Chain of PICK1, Q9NRD5 (Q9NRD5 17-115): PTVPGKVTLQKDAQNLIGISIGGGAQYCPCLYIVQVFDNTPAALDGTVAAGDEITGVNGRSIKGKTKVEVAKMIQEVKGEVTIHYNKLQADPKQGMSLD
Chain of TJP1_3, Q07157 (Q07157 416-512): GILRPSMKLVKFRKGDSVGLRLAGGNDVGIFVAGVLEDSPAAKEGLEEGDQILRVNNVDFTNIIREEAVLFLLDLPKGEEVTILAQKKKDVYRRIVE
Chain of Inadl_4, Q8NI35 (Q8NI35 547-651): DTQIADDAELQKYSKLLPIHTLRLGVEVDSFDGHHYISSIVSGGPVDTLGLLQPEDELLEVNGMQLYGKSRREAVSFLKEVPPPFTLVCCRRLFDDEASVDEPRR
Chain of GRIP2_4, Q9C0E4 (Q9C0E4 446-548): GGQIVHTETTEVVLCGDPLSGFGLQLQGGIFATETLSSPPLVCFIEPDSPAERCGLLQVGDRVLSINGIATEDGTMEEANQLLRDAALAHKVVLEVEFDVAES
Chain of HTRA1, Q92743 (Q92743 360-477): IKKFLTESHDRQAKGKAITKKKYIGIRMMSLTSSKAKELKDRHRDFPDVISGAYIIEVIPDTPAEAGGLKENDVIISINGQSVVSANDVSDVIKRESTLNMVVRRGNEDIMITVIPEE
Chain of Inadl_1, Q8NI35 (Q8NI35 113-229): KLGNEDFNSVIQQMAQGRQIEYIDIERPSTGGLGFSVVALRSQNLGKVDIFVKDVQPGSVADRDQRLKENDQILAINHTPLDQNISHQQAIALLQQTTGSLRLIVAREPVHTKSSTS
Chain of TJP1_2, Q07157 (Q07157 181-274): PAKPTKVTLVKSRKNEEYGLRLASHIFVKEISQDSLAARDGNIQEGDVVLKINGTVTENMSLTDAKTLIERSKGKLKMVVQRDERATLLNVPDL
Chain of DLG1_3, Q12959 (Q12959 457-571): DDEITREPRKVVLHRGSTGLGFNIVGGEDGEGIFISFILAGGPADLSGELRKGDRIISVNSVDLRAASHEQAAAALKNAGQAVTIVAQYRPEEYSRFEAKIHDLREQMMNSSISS
Chain of Inadl_5, Q8NI35 (Q8NI35 673-780): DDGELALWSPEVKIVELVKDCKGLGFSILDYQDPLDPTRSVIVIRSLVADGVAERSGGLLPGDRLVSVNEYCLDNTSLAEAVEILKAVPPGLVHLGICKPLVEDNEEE
Chain of Inadl_9, Q8NI35 (Q8NI35 1530-1615): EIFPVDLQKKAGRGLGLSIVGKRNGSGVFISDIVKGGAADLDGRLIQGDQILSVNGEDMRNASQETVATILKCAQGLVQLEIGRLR
Chain of HTRA2, O43464 (O43464 355-458): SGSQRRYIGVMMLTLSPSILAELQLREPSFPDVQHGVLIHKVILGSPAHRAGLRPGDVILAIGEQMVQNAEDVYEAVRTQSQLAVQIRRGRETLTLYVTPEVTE
Chain of MAGI1_1, Q96QZ7 (Q96QZ7 1-106): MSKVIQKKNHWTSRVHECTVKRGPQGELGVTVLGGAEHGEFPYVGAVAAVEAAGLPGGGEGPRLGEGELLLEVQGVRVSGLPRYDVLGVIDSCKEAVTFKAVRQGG
Chain of IL16_3, Q14005 (Q14005 1107-1207): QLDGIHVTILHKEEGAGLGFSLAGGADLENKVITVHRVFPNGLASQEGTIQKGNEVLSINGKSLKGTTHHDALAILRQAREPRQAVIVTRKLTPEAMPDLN
Chain of MAST1, Q9Y2H9 (Q9Y2H9 962-1065): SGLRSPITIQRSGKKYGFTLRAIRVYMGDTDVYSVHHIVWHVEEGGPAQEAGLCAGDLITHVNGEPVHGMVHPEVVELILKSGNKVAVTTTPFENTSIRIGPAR
Chain of GRIP2_5, Q9C0E4 (Q9C0E4 544-642): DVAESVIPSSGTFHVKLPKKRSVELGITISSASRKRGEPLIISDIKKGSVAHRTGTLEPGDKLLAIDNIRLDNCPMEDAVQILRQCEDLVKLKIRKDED

EMDRRPATVV [PLCB4, Q15147]
pKd [1, 30]: 4.23
pKd [2, 30]: 3.51
pKd [3, 30]: below the threshold
pKd [4, 30]: below the threshold
pKd [5, 30]: below the threshold
pKd [6, 30]: below the threshold
pKd [7, 30]: 4.6
pKd [8, 30]: below the threshold
pKd [9, 30]: below the threshold
pKd [10, 30]: 3.69
pKd [11, 30]: below the threshold
pKd [12, 30]: 4.23
pKd [13, 30]: 4.93
pKd [14, 30]: below the threshold
pKd [15, 30]: 3.7
pKd [16, 30]: below the threshold
pKd [17, 30]: 4.65
pKd [18, 30]: below the threshold
pKd [19, 30]: below the threshold
pKd [20, 30]: 4.04
pKd [21, 30]: below the threshold
pKd [22, 30]: 4.48
pKd [23, 30]: 3.93
pKd [24, 30]: below the threshold

NDPAWDETNL [ARHGEF7, Q14155;Q14155-1]
pKd [25, 30]: below the threshold
pKd [1, 30]: below the threshold
pKd [2, 30]: below the threshold
pKd [3, 30]: below the threshold
pKd [4, 30]: below the threshold
pKd [5, 30]: below the threshold
pKd [6, 30]: below the threshold
pKd [8, 30]: below the threshold
pKd [9, 30]: below the threshold
pKd [10, 30]: below the threshold
pKd [11, 30]: below the threshold
pKd [12, 30]: 3.92
pKd [13, 30]: below the threshold
pKd [14, 30]: below the threshold
pKd [15, 30]: below the threshold
pKd [16, 30]: 5.66
pKd [26, 30]: below the threshold
pKd [17, 30]: below the threshold
pKd [18, 30]: below the threshold
pKd [27, 30]: below the threshold
pKd [19, 30]: below the threshold
pKd [28, 30]: below the threshold
pKd [20, 30]: 4.13
pKd [21, 30]: below the threshold
pKd [22, 30]: 4.92
pKd [24, 30]: below the threshold

RLQRRRETQV [HPV18-E6, P06463]
pKd [25, 30]: below the threshold
pKd [1, 30]: 3.89
pKd [2, 30]: below the threshold
pKd [3, 30]: below the threshold
pKd [4, 30]: below the threshold
pKd [5, 30]: below the threshold
pKd [6, 30]: below the threshold
pKd [7, 30]: 3.66
pKd [8, 30]: below the threshold
pKd [9, 30]: below the threshold
pKd [29, 30]: below the threshold
pKd [10, 30]: below the threshold
pKd [11, 30]: below the threshold
pKd [12, 30]: below the threshold
pKd [13, 30]: 3.17
pKd [14, 30]: below the threshold
pKd [15, 30]: 3.56
pKd [16, 30]: 4.55
pKd [26, 30]: 3.52
pKd [17, 30]: 5.56
pKd [18, 30]: below the threshold
pKd [27, 30]: 5.02
pKd [19, 30]: below the threshold
pKd [28, 30]: below the threshold
pKd [21, 30]: below the threshold
pKd [22, 30]: 5.33
pKd [23, 30]: below the threshold
pKd [24, 30]: below the threshold

PSASCAVTAA [PDLIM4, P50479;P50479-2]
pKd [25, 31]: below the threshold
pKd [1, 31]: below the threshold
pKd [2, 31]: below the threshold
pKd [3, 31]: below the threshold
pKd [4, 31]: below the threshold
pKd [5, 31]: below the threshold
pKd [6, 31]: below the threshold
pKd [7, 31]: below the threshold
pKd [8, 31]: below the threshold
pKd [9, 31]: below the threshold
pKd [29, 31]: below the threshold
pKd [10, 31]: below the threshold
pKd [11, 31]: below the threshold
pKd [12, 31]: below the threshold
pKd [13, 31]: below the threshold
pKd [14, 31]: below the threshold
pKd [16, 31]: below the threshold
pKd [26, 31]: below the threshold
pKd [17, 31]: below the threshold
pKd [18, 31]: below the threshold
pKd [27, 31]: below the threshold
pKd [19, 31]: below the threshold
pKd [28, 31]: below the threshold
pKd [20, 31]: below the threshold
pKd [21, 31]: below the threshold
pKd [22, 31]: below the threshold
pKd [23, 31]: below the threshold
pKd [24, 31]: below the threshold

LSDPSVSTVV [GRIN1, Q05586;Q05586-2]
pKd [25, 31]: below the threshold
pKd [1, 31]: below the threshold
pKd [2, 31]: below the threshold
pKd [3, 31]: below the threshold
pKd [4, 31]: below the threshold
pKd [5, 31]: below the threshold
pKd [6, 31]: below the threshold
pKd [7, 31]: 4.01
pKd [8, 31]: below the threshold
pKd [9, 31]: below the threshold
pKd [29, 31]: below the threshold
pKd [10, 31]: below the threshold
pKd [11, 31]: below the threshold
pKd [12, 31]: 4.32
pKd [13, 31]: 4.64
pKd [14, 31]: below the threshold
pKd [15, 31]: below the threshold
pKd [26, 31]: below the threshold
pKd [17, 31]: below the threshold
pKd [18, 31]: below the threshold
pKd [27, 31]: below the threshold
pKd [19, 31]: below the threshold
pKd [28, 31]: below the threshold
pKd [20, 31]: below the threshold
pKd [21, 31]: below the threshold
pKd [22, 31]: below the threshold
pKd [23, 31]: below the threshold
pKd [24, 31]: below the threshold
